Assay results taken from article PMC3074150.

How the values were obtained:
[1] = target: δ2K259A/K260A (Streptococcus pyogenes plasmid pSM19035)
[2] = target: δ2K248S (Streptococcus pyogenes plasmid pSM19035)
[3] = target: δ2K242A (Streptococcus pyogenes plasmid pSM19035)

## δ2K259A/K260A (enzyme)
[1]
  stoichiometry N: 2

## δ2K248S (enzyme)
[2]
  stoichiometry N: 2

## δ2K242A (enzyme)
[3]
  stoichiometry N: 2
